Changes are numbered by the printed parent chain.
T1: peptide 40, CGGAEDS
T1 peptide: CGGAEDS

T2: peptide 64, CGGAEDT
T2 peptide: CGGAEDT

T3: peptide 67, CGGHEDA
T3 peptide: CGGHEDA

B1: peptide 41, GHEDTIADQE (peptide)
peptide: GHEDTIADQE
notes: also called p41; p#41
B2: murine AA amyloid (AA fibrils, amyloid enhancing factor extract or tissue deposits) (other, mouse, UniProt P05367 20-94, looked up)
chain: GFFSFIGEAFQGAGDMWRAYTDMKEAGWKDGDKYFHARGNYDAAQRGPGGVWAAEKISDARESFQEFFGRGHEDT
notes: Heterogeneous tissue-derived amyloid; also called Mouse AA (AEF); murine AA fibrils
B3: human AA amyloid (renal AA amyloid extract or tissue deposits) (other, UniProt P0DJI8 19-94, looked up)
chain: RSFFSFLGEAFDGARDMWRAYSDMREANYIGSDKYFHARGNYDAAKRGPGGAWAAEVITDARENIQRFFGHGAEDS
notes: Heterogeneous tissue-derived amyloid; also called human renal AA amyloid extract; human AA amyloid extract
B4: murine monoclonal antibody 2A4 (antibody, V domains shown)
VH: EVQLVESGGRLVQPKGSLKLSCAASGFTFNTYAMYWIRQAPGKGLEWVARIRSKSNNYAIYYADSVKDRFTIFRDDSQSMLYLQMNNLKTEDTAMYYCVRPYSDSFAYWGQGTLVTVSA
VL: DVVMTQTPLSLPVSLGDQASISCRSSQSLVHSTGNTYLHWYLQKPGQSPKLLIYKVSNRFSGVPDRFSGSGSGTYFTLKISRVEAEDLGVYFCSQSTHVPFTFGGGTKLEIK
notes: Mouse IgG2b kappa; Used as hybridoma culture supernatant or protein A-purified mAb; also called mAb 2A4; 2A4.20.44.77
B5: murine monoclonal antibody 8G9 (antibody, mouse IgG2b, V domains shown)
VH: B4 VH
VL: B4 VL
notes: Mouse IgG2b kappa; also called mAb 8G9; 8G9.3.4.51.22
B6: murine monoclonal antibody 7D8 (antibody, mouse IgG2b, V domains shown)
VH: B4 VH
VL: B4 VL with Q27L
notes: Mouse IgG2b kappa; also called mAb 7D8; 7D8.29.19.47
B7: peptide 39, CGGHEDT (immunogen peptide EPRB-39) (peptide)
peptide: CGGHEDT
notes: also called p39; p#39

Legend:
[1] = biological target: B4; assay: immunohistochemistry, preincubation of 2A4 supernatant with peptide before staining murine AA amyloid
Text: The reactivity of supernatants from hybridomas expressing antibodies 2A4, 8G9 and 7D8 to murine AA splenic and hepatic amyloid deposits (the principal sites of amyloid deposition) was documented immunohistochemically. For these studies, sections of tissue harvested from a TRIAD mouse with extensive AA amyloid in the liver and spleen (as evidenced by green birefringent Congophilic deposits) were stained with the mAb-containing supernatants. All 3 bound to the hepatic and splenic amyloid. In contrast, there was no reactivity with culture supernatants derived from irrelevant hybridomas. The capability of the amyloid using 2A4, 8G9 and 7D8 to immunostain amyloid in fresh (unfixed), OCT-embedded murine liver and spleen was tested. There was evidence that the mAbs retained their ability to bind AA amyloid in the hepatic sinusoid. In addition, the antibody reactivity with splenic tissue was easier to interpret, and the perifollicular amyloid was intensely immunostained. […] In contrast, the p#41 peptide was ineffective.

[2] = biological target: B4; assay: competition ELISA: mouse AA (AEF) in solution against adsorbed human AA amyloid extract, mAb 2A4
Experimental: (§1) To determine the effect, if any, of potential denaturation when adsorbed to the surface of the microtiter well, the reactivity of the 2A4, 8G9 and […] was evaluated using a competition ELISA in which murine or human AA amyloid extract was used as a soluble competitor for the interaction of the mAbs with surface-bound AA extract.
(§2) In general, the murine AA (AEF) extract was a better competitor than the human AA (Table 6).

[3] = biological target: B6; assay: competition ELISA: mouse AA (AEF) in solution against adsorbed human AA amyloid extract, mAb 7D8
Experimental: as §1, §2

[4] = biological target: B5; assay: competition ELISA: mouse AA (AEF) in solution against adsorbed human AA amyloid extract, mAb 8G9
Experimental: as §1, §2

[5] = biological target: B4; assay: competition ELISA: human AA amyloid in solution against adsorbed mouse AA (AEF), mAb 2A4
Experimental: as §1, §2

[6] = biological target: B6; assay: competition ELISA: human AA amyloid in solution against adsorbed mouse AA (AEF), mAb 7D8
Experimental: as §1, §2

[7] = biological target: B5; assay: competition ELISA: human AA amyloid in solution against adsorbed mouse AA (AEF), mAb 8G9
Experimental: as §1, §2

peptide 40, CGGAEDS = biological target: T1, peptide 40, CGGAEDS; assay: BIAcore analysis of peptide binding
peptide 64, CGGAEDT = biological target: T2, peptide 64, CGGAEDT; assay: BIAcore analysis of peptide binding
peptide 67, CGGHEDA = biological target: T3, peptide 67, CGGHEDA; assay: BIAcore analysis of peptide binding
[8] = biological target: B7; assay: ELISA, purified mAb on adsorbed peptide 39
peptide 41, GHEDTIADQE = biological target: B1; assay: ELISA, purified mAb on adsorbed peptide 41
Experimental: (§3) Protein Mr markers (Std) are, form top to bottom: 176, 119, 75, 49, 39, 25 and 19 kDa. The interaction of the purified mAbs with immunizing peptide p#39, control peptide (p#41), murine and human AA extracts were determined by ELISA as described above.
(§4) In contrast, even at the highest concentration of mAb used (100 nM) there was little detectable binding to the p#41 peptide (FIG. 33—Each point represents the mean±SE, (n=3 at each concentration)). […] The calculated EC50 values for the mAbs binding to mouse AA extract were essentially identical to those obtained when the p#39 peptide was used as the substrate (FIG. 34; Table 5). […] Because the EC50 value for 7D8 mAb binding was the lowest of the 3 antibodies tested, Applicants selected this reagent for in vivo co-localization and imaging studies. The 2 amino acid substitutions in the human SAA sequence with respect to the murine protein affected the EC50 values.

[9] = biological target: B2; assay: ELISA, purified mAb on adsorbed mouse AA (AEF)
Experimental: as §3, §4

[10] = biological target: B2; assay: ELISA, hybridoma culture supernatant on murine AA (AEF)
Text: The interaction of 2A4, 8G9 and 7D8 mAbs with AA amyloid was initially tested by ELISA and the data, given in FIG. 31, analyzed using SigmaPlot (SPSS Inc.). Each point represents the mean±SE (n=3). A culture supernatant from an irrelevant hybridoma was used as a control (Ctrl Culture Sup). […] (In addition, the immunohistochemical reactivity of the day 1 material was greater than the day 2 samples). […] Because of the low signal and high variability found with the culture supernatants and to determine more accurately the relative binding affinity of the mAbs for murine and human AA amyloid fibrils (as well as to provide material for in vivo biodistribution studies) it was necessary to isolate the mAbs by protein A affinity chromatography. The purity of the isolated mAbs was established SDS-PAGE using 10% acrylamide gels under reducing and non-reducing conditions (FIG. 32). Samples in lanes 1-4 treated with mercaptoethanol, lanes 5-9 without. Gel was stained with Coomassie blue: mAb 8G9, lanes 1 and 6; mAb 2A4, lanes 2 and 7; mAb 7D8, lanes 3 and 8; SP2/0 control supernatant, lanes 4 and 9; blank, lane 5. Protein Mr markers (Std) are, form top to bottom: 176, 119, 75, 49, 39, 25 and 19 kDa. The interaction of the purified mAbs with immunizing peptide p#39, control peptide (p#41), murine and human AA extracts were determined by ELISA as described above.

[11] = biological target: B3; assay: ELISA, purified mAb on adsorbed human AA amyloid extract
Experimental: as §3, §4

[12] = biological target: B5; assay: immunohistochemistry with peptide inhibition, human ovarian tissue
[13] = biological target: B4; assay: immunohistochemistry, supernatant (1:25) preincubated with peptide
[14] = biological target: B6; assay: SPR competition, 7D8 with p39 at 1 µg/mL over immobilized Vλ6 Wil fibrils

B1
binding result [1]: no binding (tested: 50 µg/mL)

B2
IC50 [2]: 14.7 µg/mL
IC50 [3]: 26.8 µg/mL
IC50 [4]: 17.3 µg/mL

B3
IC50 [5]: > 212 µg/mL
IC50 [6]: > 881 µg/mL
IC50 [7]: > 120 µg/mL

B4
binding result (peptide 40, CGGAEDS): binds
binding result (peptide 64, CGGAEDT): binds
binding result (peptide 67, CGGHEDA): binds
EC50 [8]: 3.4 nM
EC50 (peptide 41, GHEDTIADQE): > 100 nM
EC50 [9]: 4.09 nM
dilution of culture supernatant after which reactivity is absent [10]: ~64 dilution factor (1:x)
EC50 [11]: 26.4 nM

B5
EC50 [8]: 4 nM
EC50 (peptide 41, GHEDTIADQE): > 100 nM
EC50 [9]: 5.64 nM
dilution of culture supernatant after which reactivity is absent [10]: ~64 dilution factor (1:x)
EC50 [11]: 31.7 nM

B6
binding result (peptide 40, CGGAEDS): binds
binding result (peptide 64, CGGAEDT): binds
binding result (peptide 67, CGGHEDA): binds
EC50 [8]: 2.3 nM
EC50 (peptide 41, GHEDTIADQE): > 100 nM
EC50 [9]: 1.84 nM
dilution of culture supernatant after which reactivity is absent [10]: ~64 dilution factor (1:x)
EC50 [11]: 13.3 nM

B7
binding result [12]: binds
binding result [13]: binds
fold decrease in the extent of binding of 7D8 to Vλ6 Wil fibrils [14]: > 2 fold
